Sequences and labels used below:
B1: MOR021449 (antibody, V domains shown)
VH: QVQLVQSGAEVKKPGSSVKVSCKASGGTFSDYAISWVRQAPGQGLEWMGGIQPGFAGAWYAQKFQGRVTITADESTSTAYMELSSLRSEDTAVYYCAREPSPLYGPYSDYVMDPWGQGTLVTVSS
VL: DIALTQPASVSGSPGQSITISCTGTSSDVGYFNFVSWYQQHPGKAPKLMIYDVSNRPSGVSNRFSGSKSGNTASLTISGLQAEDEADYYCASYGWDSSWVFGGGTKLTVLG
notes: IgG (human IgG1f LALA); parent MOR20052 with the printed HCDR2 stretch exchanged
B2: MOR021441 (antibody, V domains shown)
VH: QVQLVQSGAEVKKPGSSVKVSCKASGGTFSDYAISWVRQAPGQGLEWMGGIVPIVGTANYAQKFQGRVTITADESTSTAYMELSSLRSEDTAVYYCARDSSTSYYYYFDYWGQGTLVTVSS
VL: DIQMTQSPSSLSASVGDRVTITCRASQDINSWLAWYQQKPGKAPKLLIYQASNLQSGVPSRFSGSGSGTDFTLTISSLQPEDFATYYCQQMKTFPITFGQGTKVEIKR
notes: IgG (human IgG1f LALA); parent MOR20159 with the printed LCDR3 stretch exchanged
B3: MOR021442 (antibody, V domains shown)
VH: QVQLVQSGAEVKKPGSSVKVSCKASGGTFSDYAISWVRQAPGQGLEWMGGIVPIVGTANYAQKFQGRVTITADESTSTAYMELSSLRSEDTAVYYCARDSSTSYYYYFDYWGQGTLVTVSS
VL: DIQMTQSPSSLSASVGDRVTITCRASQDINSWLAWYQQKPGKAPKLLIYQASNLQSGVPSRFSGSGSGTDFTLTISSLQPEDFATYYCQQMHRLPVTFGQGTKVEIKR
notes: as for B2
B4: MOR021443 (antibody, V domains shown)
VH: QVQLVQSGAEVKKPGESLKISCKGSGYSFTNYWIAWVRQMPGKGLEWMGRIFPGKSETSYSPSFQGQVTISADKSISTAYLQWSSLKASDTAMYYCARGKRGATHPTQYEGWEVYGFDPWGQGTLVTVSS
VL: DIELTQPPSVSVSPGQTASITCSGDALGGKYASWYQQKPGQAPVLVIYDDNKRPSGIPERFSGSNSGNTATLTISGTQAEDEADYYCQSWAFYSGVFGGGTKLTVLG
notes: IgG (human IgG1f LALA); parent MOR20133 with the printed HCDR2 stretch exchanged
B5: MOR021445 (antibody, V domains shown)
VH: QVQLVQSGAEVKKPGESLKISCKGSGYSFTNYWIAWVRQMPGKGLEWMGAIRPEWSETKYSPSFQGQVTISADKSISTAYLQWSSLKASDTAMYYCARGKRGATHPTQYEGWEVYGFDPWGQGTLVTVSS
VL: DIELTQPPSVSVSPGQTASITCSGDALGGKYASWYQQKPGQAPVLVIYDDNKRPSGIPERFSGSNSGNTATLTISGTQAEDEADYYCQSWAFYSGVFGGGTKLTVLG
notes: as for B4
B6: MOR021444 (antibody, V domains shown)
VH: QVQLVQSGAEVKKPGESLKISCKGSGYSFTNYWIAWVRQMPGKGLEWMGRIEPLSSTTEYSPSFQGQVTISADKSISTAYLQWSSLKASDTAMYYCARGKRGATHPTQYEGWEVYGFDPWGQGTLVTVSS
VL: DIELTQPPSVSVSPGQTASITCSGDALGGKYASWYQQKPGQAPVLVIYDDNKRPSGIPERFSGSNSGNTATLTISGTQAEDEADYYCQSWAFYSGVFGGGTKLTVLG
notes: as for B4
B7: MOR021451 (antibody, V domains shown)
VH: QVQLVQSGAEVKKPGSSVKVSCKASGGTFSSYAISWVRQAPGQGLEWMGRIVPGFVYTSYAQKFQGRVTITADESTSTAYMELSSLRSEDTAVYYCARDPLYRSDYYYHWFDFWGQGTLVTVSS
VL: DIALTQPASVSGSPGQSITISCTGTSSDVGNFNYVSWYQQHPGKAPKLMIYGVNNRPSGVSNRFSGSKSGNTASLTISGLQAEDEADYYCAAYGWALDEVVFGGGTKLTVLG
notes: IgG (human IgG1f LALA); parent MOR20152 with the printed HCDR2 stretch exchanged
B8: MOR021553 (antibody, V domains shown)
VH: QVQLLESGGGLVQSGGSLRLSCAASGFTFRSGAAMHWVRQAPGKGLEWVSSIEYFGSATLYADSVKGRFTISRDNSKNTLYLQMNSLRAEDTAVYYCARNFKYAMDYWGQGTLVTVSS
VL: DIALTQPASVSGSPGQSITISCTGTSSDVGSINYVSWYQQHPGKAPKMIYAVSYRPSGVSNRFSGSKSGNTASLTISGLQAEDEADYYCQVWDWRSDSRVFGGGTKLTVLG
notes: IgG (human IgG1f LALA); parent MOR20148 with the printed HCDR2 stretch exchanged

This experiment concerns the target APP-Avi-soluble human LOX-1(61-273) (human, UniProt P78380 61-273). In words: SET, IgG vs soluble human LOX-1. As to the method:
Affinity determination for anti-LOX-1 IgGs using Solution Equilibrium Titration (SET) was basically performed as described in the literature (Friguet et al., 1985 J Immunol Methods 77: 305-319). The assays were performed in a 96-well polypropylene plate (Thermo Scientific, Catalog no. AB-1127) using a constant concentration of LOX-1 antibody mixed with different concentrations of non-biotinylated human or cynomolgus monkey LOX-1 protein and incubated at 22° C. for 14 hours with constant shaking (300 rpm).
On a pre-blocked MSD plate (Meso Scale Discovery, catalog no. L21SA) biotinylated human or cynomolgus monkey soluble LOX-1 protein was immobilized and washed afterwards. The equilibrium binding reactions were then applied to the MSD plate with immobilized LOX-1 and incubated for 30 min. The unbound material was removed by washing the plate, and the captured antibody was detected by adding Sulfo-tagged goat anti-human IgG (Meso Scale Discovery, catalog no. R3AJ-1). After incubation and washing 1×MSD read buffer T(Meso Scale Discovery, catalog no. R92TC-2) was added and the plate was developed using a Sector Imager 6000 (Meso Scale Discovery). The data were transferred to Excel for analysis and plotted using GraphPad Prism v5. The KD values were determined by fitting the data to the following equation: […]
Take B1: the Kd was determined as 0.3 pM. For B2 the value was 3 pM; for B3, 4 pM; for B4, 75 pM. For B5 the value was 30 pM. For B6 the value was 35 pM; for B7, 0.1 pM. In the case of B8, the Kd stood at 6 pM.
